Measurements reported in US20180126013A1 (H LEE MOFFITT CANCER CENTER AND RESEARCH INSTITUTE, published 2018).
Square brackets hold non-standard residues; d marks the D form. Side chains are listed from the residue outwards. Ends that are not written are not given here. * marks the point of attachment. 1‑phenylbutyric acid = 1-phenylbutyric acid (N-terminal acyl cap); D‑di‑Glu = D-di-Glu linker between Lys side chain and DOTA; DOTA = O=C(O)CN1CCN(CC(=O)O)CCN(CC(=O)*)CCN(CC(=O)O)CC1; Ahx = NCCCCCC(=O)O

Experiments:
[1] = molecular target: T1, melanocortin-1 receptor (MC1R) (UniProt Q01726 1-317, limits assumed); assay: time-resolved fluorescence (TRF) competition binding assay on Hek293/MC1R cells
T1 construct: whole, on cells; also called Hek293/MC1R cells; A375/MC1R cells
T1 sequence (Q01726 whole entry): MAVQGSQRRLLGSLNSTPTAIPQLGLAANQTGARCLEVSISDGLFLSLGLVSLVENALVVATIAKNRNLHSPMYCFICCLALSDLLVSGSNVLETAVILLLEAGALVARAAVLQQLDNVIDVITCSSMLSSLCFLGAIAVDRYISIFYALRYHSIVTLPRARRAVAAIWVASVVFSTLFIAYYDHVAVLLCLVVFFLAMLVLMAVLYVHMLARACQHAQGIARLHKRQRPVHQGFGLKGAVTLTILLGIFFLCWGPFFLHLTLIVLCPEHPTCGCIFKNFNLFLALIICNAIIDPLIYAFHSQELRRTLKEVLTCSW
Description: (§1) Time-resolved fluorescence (TRF) competition binding assays were performed to determine binding affinities of these DOTA conjugates (FIG. 2). The TRF method takes advantage of the long fluorescence lifetime of the lanthanide Europium and can detect less than one attomole in a multiwell plate sample. Hek293/MC1R cells (Hek293 cells engineered to over-express MC1R) were used for the binding assays. Saturation TRF binding assays were performed using versions of the compounds with chelated europium to determine specific and non-specific binding (FIG. 17-20).

[2] = molecular target: T1, melanocortin-1 receptor (MC1R); assay: competitive binding assay (FIG. 2)
Description: as §1

[3] = molecular target: T1, melanocortin-1 receptor (MC1R); assay: TRF saturation binding with the Eu chelate on Hek293/MC1R cells; specific = total minus nonspecific (20x MC1RL-DOTA block)
Description: The binding sequence is 1-Phenylbutyric acid-His(D)Phe-Arg-Trp-Gly-Lys(D-di-Glu-DOTA)-CONH₂. Eu is chelated into the conjugated DOTA for lanthanide-based binding assays but ²²⁵Ac, ⁶⁸Ga, or ¹¹¹In can also be chelated. […] 20×MC1Rl-DOTA was used for blocking. […] Data is the result of two repeats.
as §1

[4] = molecular target: T1, melanocortin-1 receptor (MC1R); assay: not stated in the sentence (binding affinity of the DOTA conjugate and its chelates)

Ki [1] [nM]	Kd [3] [nM]	Binder	further results
0.23	–	H[dF]RWGK([Ahx-DOTA])-NH2 (not fully specified (N-terminus); also: 139La chelated by DOTA, Nonradioactive surrogate of ^225Ac-DOTA-MC1RL; also called cold agent) [^139La-DOTA-MC1RL]	Ki [2]: 0.2 nM
–	0.19	{1‑phenylbutyric acid}-H[dF]RWGK([D‑di‑Glu-DOTA])-NH2 (also: 152Eu chelate, also called 1-Phenylbutyric acid-His(D)Phe-Arg-Trp-Gly-Lys(D-di-Glu-DOTA)-CONH2, Eu chelate) [MC1RL linked through D-di-Glu to DOTA:^152Eu]	–
–	0.88	{1‑phenylbutyric acid}-H[dF]RWGK([Ahx-DOTA])-NH2 (also: 152Eu chelate, also called 1-Phenylbutyric acid-His(D)Phe-Arg-Trp-Gly-Lys(Ahx-DOTA)-CONH2, Eu chelate) [MC1RL linked through aminohexanoic acid (Ahx) to DOTA:^152Eu]	–
–	0.69	{1‑phenylbutyric acid}-H[dF]RWGK(DOTA)-NH2 (also: 152Eu chelate, also called 1-Phenylbutyric acid-His(D)Phe-Arg-Trp-Gly-Lys(DOTA)-CONH2, Eu chelate) [MC1RL linked to DOTA:^152Eu]	–
0.24	–	H[dF]RWGK([Ahx-DOTA])-NH2 (not fully specified (N-terminus), also called MC1RL-DOTA; DOTA labeled conjugate of the MC1R specific ligand) [DOTA-MC1RL (unlabeled)]	Ki [4]: 0.3 nM
0.34	–	H[dF]RWGK([Ahx-DOTA])-NH2 (not fully specified (N-terminus); also: nonradioactive 67/69Ga chelated by DOTA, Nonradioactive surrogate of the ^68Ga PET agent) [^67/69Ga-DOTA-MC1RL]	–
